Laboratory results taken from the supplement of paper PMC7877785.
± gives the uncertainty stated by the source.

Test: self-splicing fitness, log relative to wild type (ln ratio); higher = more splicing; Tetrahymena group I intron in knt gene, E. coli kanamycin selection, DiMSum; sequences stand for … in CUCUCU…GGAGGGAAAAGUUAUCAGGCAUGCACCUGGUAGCUAGUCUUUAAACCAAUAGAUUGCAUCGGUUUAAAAGGCAAGACCGUCAAAUUGCGGGAAAGGGGUCAACAGCCGUUCAGUACCAAGUCUCAGGGGAAACUUUGAGAUGGCCUUGCAAAGGGUAUGGUAAUAAGCUGACGGACAUGGUCCUAACCACGCAGCCAAGUCCUAAGUCAACAGAUCUUCUGUUGAUAUGGAUGCAGUUCACAGACUAAAUGUCGGUCGGGGAAGAUGUAUUCUUCUCAUAAGAUAUAGUCGGACCUCUCCUUAAUGGGAGCUAGCGGAUGAAGUGAUGCAACACUGGAGCCGCUGGGAACUAAUUUGUAUGCGAAAGUAUAUUGAUUAGUUUUGGAGUACUCGUGGUCG
Summary of the method: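 Fitness was computed with DiMSum as the error-weighted combination of replicate fold changes, kanamycin versus none, each normalised to wild type. The library randomised all eight intron nucleotides of the P1ex region, with the intron placed in the knt kanamycin-resistance gene on pET-22b(+) in E. coli BL21(DE3). Six replicate transformations were grown overnight at 37°C or 30°C on LB agar with or without 25 μg/mL kanamycin, plus 100 μg/mL carbenicillin, 50 μM IPTG and 0.2% rhamnose. Pooled colonies were amplicon-sequenced on an Illumina HiSeq 2500.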

Row | Sequence | self-splicing fitness (ln) (30 °C) | self-splicing fitness (ln) (37 °C)
1 | CAUCAGCAAUAUUACGCUGG | -3.62 ± 0.19 | -2.97 ± 0.2
2 | CAUCAGCAAUAUUACGGAAG | -0.623 ± 0.054 | -0.416 ± 0.069
3 | CAUCAGCAAUAUUACGGGAU | – | -1.88 ± 0.22
4 | CAUCAGCAAUAUUACGGUUA | -0.767 ± 0.1 | -0.102 ± 0.1
5 | CAUCAGCAAUAUUACGUAAA | -1.39 ± 0.11 | -0.891 ± 0.13
6 | CAUCAGCAAUAUUACGUAAC | -2.81 ± 0.15 | -2.01 ± 0.24
7 | CAUCAGCAAUAUUACGUAAU | -2.56 ± 0.09 | -1.4 ± 0.1
8 | CAUCAGCAAUAUUACGUAGA | -1.06 ± 0.065 | -0.309 ± 0.088
9 | CAUCAGCAAUAUUACGUAGG | -0.284 ± 0.05 | 0.412 ± 0.077
10 | CAUCAGCAAUAUUACGUCGU | -1.93 ± 0.097 | -1.19 ± 0.11
11 | CAUCAGCAAUAUUACGUGAA | -0.729 ± 0.055 | -0.211 ± 0.09
12 | CAUCAGCAAUAUUACGUUUC | -2.76 ± 0.17 | -1.82 ± 0.16
13 | CAUGAGCAAUAUUACGAACU | -3.53 ± 0.19 | -2.95 ± 0.26
14 | CAUGAGCAAUAUUACGAAUG | -3.67 ± 0.2 | -2.33 ± 0.16
15 | CAUGAGCAAUAUUACGACAC | – | -1.19 ± 0.31
16 | CAUGAGCAAUAUUACGAGCC | -3.05 ± 0.41 | –
17 | CAUGAGCAAUAUUACGAUGC | -3.19 ± 0.17 | -1.89 ± 0.2
18 | CAUGAGCAAUAUUACGAUUG | -4.17 ± 0.26 | -3.15 ± 0.24
19 | CAUGAGCAAUAUUACGCACA | -2.8 ± 0.2 | -2.44 ± 0.23
20 | CAUGAGCAAUAUUACGCAGA | -4.53 ± 0.32 | -1.69 ± 0.15
21 | CAUGAGCAAUAUUACGCGCA | -2.89 ± 0.19 | -1.31 ± 0.16
22 | CAUGAGCAAUAUUACGCGGG | -1.45 ± 0.14 | -2.46 ± 0.28
23 | CAUGAGCAAUAUUACGCGGU | -4.59 ± 0.33 | -2.33 ± 0.21
24 | CAUGAGCAAUAUUACGGAAA | -3.26 ± 0.29 | -2.17 ± 0.24
25 | CAUGAGCAAUAUUACGGCUU | -2.99 ± 0.17 | -2.92 ± 0.29

Row | Sequence | self-splicing fitness (ln) (30 °C) | self-splicing fitness (ln) (37 °C)
26 | CAUGAGCAAUAUUACGGGCA | -2.43 ± 0.18 | -2.21 ± 0.28
27 | CAUGAGCAAUAUUACGGGGG | -2.64 ± 0.23 | -2.64 ± 0.3
28 | CAUGAGCAAUAUUACGGUCG | -0.34 ± 0.091 | 0.0674 ± 0.1
29 | CAUGAGCAAUAUUACGGUUA | -2.75 ± 0.23 | -3.26 ± 0.32
30 | CAUGAGCAAUAUUACGUGUG | -3.67 ± 0.17 | -3.09 ± 0.16
31 | CAUUAGCAAUAUUACGAACA | -3.7 ± 0.42 | -0.317 ± 0.2
32 | CAUUAGCAAUAUUACGAGUA | -1.59 ± 0.23 | -1.84 ± 0.27
33 | CAUUAGCAAUAUUACGAGUG | -3.06 ± 0.15 | -2.83 ± 0.2
34 | CAUUAGCAAUAUUACGAUCA | -2.81 ± 0.33 | -1.46 ± 0.23
35 | CAUUAGCAAUAUUACGAUCU | -2.48 ± 0.2 | -3.22 ± 0.47
36 | CAUUAGCAAUAUUACGCAAU | – | -1.54 ± 0.43
37 | CAUUAGCAAUAUUACGCAGG | -2.18 ± 0.12 | -1.53 ± 0.13
38 | CAUUAGCAAUAUUACGCAUC | -2.71 ± 0.21 | -1.6 ± 0.27
39 | CAUUAGCAAUAUUACGCCUG | -1.4 ± 0.12 | -0.136 ± 0.12
40 | CAUUAGCAAUAUUACGGCUU | -4.46 ± 0.39 | -1.98 ± 0.33
41 | CAUUAGCAAUAUUACGUAGU | -3.66 ± 0.17 | -1.84 ± 0.17
42 | CAUUAGCAAUAUUACGUCAA | -2.38 ± 0.23 | -2.96 ± 0.4
43 | CAUUAGCAAUAUUACGUCCG | -0.0564 ± 0.12 | -0.142 ± 0.15
44 | CAUUAGCAAUAUUACGUGAG | -1.55 ± 0.14 | 0.776 ± 0.12
45 | CAUUAGCAAUAUUACGUGCA | -2.31 ± 0.28 | –
46 | CAUUAGCAAUAUUACGUGCG | -0.965 ± 0.074 | -0.237 ± 0.082
47 | CAUUAGCAAUAUUACGUGGA | -3.35 ± 0.19 | -2.13 ± 0.13
48 | CAUUAGCAAUAUUACGUUCA | -2.33 ± 0.2 | -2.35 ± 0.24
49 | CCAAAGCAAUAUUACGAACA | -3.48 ± 0.22 | -3.23 ± 0.28
50 | CCAAAGCAAUAUUACGAUCA | -2.94 ± 0.13 | -3.1 ± 0.31

Row | Sequence | self-splicing fitness (ln) (30 °C) | self-splicing fitness (ln) (37 °C)
51 | CCAAAGCAAUAUUACGAUUA | -3.39 ± 0.2 | -3.27 ± 0.25
52 | CCAAAGCAAUAUUACGCAGA | -3.75 ± 0.19 | -2.65 ± 0.18
53 | CCAAAGCAAUAUUACGCAUA | -3.42 ± 0.15 | -2.38 ± 0.17
54 | CCAAAGCAAUAUUACGCGAC | -4.37 ± 0.27 | -2.87 ± 0.21
55 | CCAAAGCAAUAUUACGCGCG | -1.59 ± 0.075 | -0.994 ± 0.1
56 | CCAAAGCAAUAUUACGCGGC | -3.34 ± 0.18 | -3.15 ± 0.32
57 | CCAAAGCAAUAUUACGCGUC | -3.17 ± 0.21 | -2.98 ± 0.34
58 | CCAAAGCAAUAUUACGGAGG | -3.79 ± 0.25 | -2.04 ± 0.21
59 | CCAAAGCAAUAUUACGGAUU | -3.94 ± 0.25 | -3.55 ± 0.35
60 | CCAAAGCAAUAUUACGGCAG | -0.931 ± 0.074 | -0.49 ± 0.11
61 | CCAAAGCAAUAUUACGGCUC | -3.44 ± 0.29 | -2.32 ± 0.25
62 | CCAAAGCAAUAUUACGGGUA | -2.96 ± 0.24 | -3.34 ± 0.43
63 | CCAAAGCAAUAUUACGGUAC | -3.5 ± 0.24 | -3.13 ± 0.29
64 | CCAAAGCAAUAUUACGGUGU | -3.74 ± 0.19 | -2.97 ± 0.15
65 | CCAAAGCAAUAUUACGUACU | -3.69 ± 0.2 | -2.76 ± 0.27
66 | CCAAAGCAAUAUUACGUAUC | -1.28 ± 0.11 | -2.76 ± 0.24
67 | CCAAAGCAAUAUUACGUCAA | -3.22 ± 0.14 | -2.02 ± 0.13
68 | CCAAAGCAAUAUUACGUGGA | -3.55 ± 0.15 | -2.81 ± 0.21
69 | CCACAGCAAUAUUACGAACU | -2.98 ± 0.17 | -3.23 ± 0.32
70 | CCACAGCAAUAUUACGACCC | -4.02 ± 0.39 | –
71 | CCACAGCAAUAUUACGACGA | -3.12 ± 0.19 | -2.09 ± 0.16
72 | CCACAGCAAUAUUACGAGAA | -2.74 ± 0.26 | -3.69 ± 0.39
73 | CCACAGCAAUAUUACGAUCG | -0.326 ± 0.06 | 0.703 ± 0.077
74 | CCACAGCAAUAUUACGAUUC | -3.17 ± 0.11 | -2.23 ± 0.14
75 | CCACAGCAAUAUUACGCAGA | -3.08 ± 0.17 | -2.89 ± 0.16

Row | Sequence | self-splicing fitness (ln) (30 °C) | self-splicing fitness (ln) (37 °C)
76 | CCACAGCAAUAUUACGCAUC | -3.23 ± 0.19 | -2.31 ± 0.2
77 | CCACAGCAAUAUUACGCUAA | -3.8 ± 0.22 | -1.62 ± 0.15
78 | CCACAGCAAUAUUACGCUAG | -3.27 ± 0.12 | -1.36 ± 0.1
79 | CCACAGCAAUAUUACGCUUA | -3.43 ± 0.16 | -2.98 ± 0.18
80 | CCACAGCAAUAUUACGCUUC | -3.25 ± 0.47 | –
81 | CCACAGCAAUAUUACGGCGC | -3.56 ± 0.16 | -2.17 ± 0.13
82 | CCACAGCAAUAUUACGGCUU | -3.62 ± 0.14 | -2.71 ± 0.18
83 | CCACAGCAAUAUUACGGGCC | -4.14 ± 0.25 | -2.5 ± 0.18
84 | CCACAGCAAUAUUACGGUGG | -4.51 ± 0.17 | -2.28 ± 0.11
85 | CCACAGCAAUAUUACGUCCA | -3.23 ± 0.19 | -1.59 ± 0.15
86 | CCACAGCAAUAUUACGUCUC | -3.01 ± 0.17 | -2.66 ± 0.16
87 | CCACAGCAAUAUUACGUGAG | -0.847 ± 0.051 | -0.739 ± 0.065
88 | CCACAGCAAUAUUACGUGGC | -3.84 ± 0.12 | -2.86 ± 0.12
89 | CCACAGCAAUAUUACGUUCA | -3.27 ± 0.16 | -2.5 ± 0.19
90 | CCACAGCAAUAUUACGUUCU | -2.77 ± 0.1 | -3.7 ± 0.19
91 | CCAGAGCAAUAUUACGACCG | -0.53 ± 0.14 | -0.622 ± 0.22
92 | CCAGAGCAAUAUUACGACGG | -2.88 ± 0.18 | -2.02 ± 0.28
93 | CCAGAGCAAUAUUACGACUG | -1.05 ± 0.1 | -0.605 ± 0.15
94 | CCAGAGCAAUAUUACGACUU | -3.55 ± 0.17 | -2.61 ± 0.23
95 | CCAGAGCAAUAUUACGAGGA | -2.96 ± 0.23 | -2.46 ± 0.27
96 | CCAGAGCAAUAUUACGAGUG | -1.2 ± 0.073 | -0.146 ± 0.092
97 | CCAGAGCAAUAUUACGCAAA | -2.79 ± 0.48 | -1.57 ± 0.33
